Target: T1, HA-SUN2 (human (cDNA from 293T or A2780 cells), UniProt Q9UH99 1-717, N-glycosylation (sites not given))
T1 construct: SAD1/UNC84 domain protein-2 (SUN2), cloned from cDNAs of 293T or A2780 cells; also called SAD1/UNC84 domain protein-2; source: HEK293T, transiently transfected; immunoprecipitated with anti-HA resin and eluted with HA peptide, or in lysate
T1 sequence (looked up): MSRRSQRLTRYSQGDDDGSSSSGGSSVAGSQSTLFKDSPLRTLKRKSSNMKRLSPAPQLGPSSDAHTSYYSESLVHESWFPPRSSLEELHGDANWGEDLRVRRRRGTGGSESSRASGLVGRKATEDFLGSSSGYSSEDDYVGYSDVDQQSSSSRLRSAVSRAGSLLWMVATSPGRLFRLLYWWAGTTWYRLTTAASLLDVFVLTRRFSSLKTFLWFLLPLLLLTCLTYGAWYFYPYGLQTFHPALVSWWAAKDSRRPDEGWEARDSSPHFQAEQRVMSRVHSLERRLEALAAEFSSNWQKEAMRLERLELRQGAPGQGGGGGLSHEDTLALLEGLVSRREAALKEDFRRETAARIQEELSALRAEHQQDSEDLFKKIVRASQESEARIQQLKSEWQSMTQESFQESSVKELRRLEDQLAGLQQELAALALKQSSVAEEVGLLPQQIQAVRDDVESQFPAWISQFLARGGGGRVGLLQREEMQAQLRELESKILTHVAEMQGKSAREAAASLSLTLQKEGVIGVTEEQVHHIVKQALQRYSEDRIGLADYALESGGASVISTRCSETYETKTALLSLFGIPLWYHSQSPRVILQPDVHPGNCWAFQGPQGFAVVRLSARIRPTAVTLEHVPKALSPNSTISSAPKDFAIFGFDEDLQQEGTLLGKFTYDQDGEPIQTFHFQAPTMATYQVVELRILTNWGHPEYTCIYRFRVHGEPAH
Assay: pull-down; GST or GST-FBXO2 incubated with HA-SUN2 (anti-HA resin, eluted with HA peptide) in PB buffer (20 mM HEPES pH 7.5, 130 mM KCl, 5 mM MgCl2, 1 mM DTT, 0.5 mM EDTA, 0.05% NP40) at 30 °C for 2 h, then glutathione beads; the legend speaks of lysed cells
Settings: both partners purified

B1: GST-FBXO2 WT (natural protein, human, UniProt Q9UK22 1-296, looked up)
chain: MDGDGDPESVGQPEEASPEEQPEEASAEEERPEDQQEEEAAAAAAYLDELPEPLLLRVLAALPAAELVQACRLVCLRWKELVDGAPLWLLKCQQEGLVPEGGVEEERDHWQQFYFLSKRRRNLLRNPCGEEDLEGWCDVEHGGDGWRVEELPGDSGVEFTHDESVKKYFASSFEWCRKAQVIDLQAEGYWEELLDTTQPAIVVKDWYSGRSDAGCLYELTVKLLSEHENVLAEFSSGQVAVPQDSDGGGWMEISHTFTDYGPGVRFVRFEHGGQDSVYWKGWFGARVTNSSVWVEP
notes: F-box protein FBXO2, human; also called GST tagged FBXO2
B1: binds.

Reference: publication PMC9079088, “FBXO2 targets glycosylated SUN2 for ubiquitination and degradation to promote ovarian cancer development” (Cell Death & Disease, 2022)
